Target: CXCR4 receptor (human, UniProt P61073 1-352)
Test: cell-based or functional assay

Chain of CXCR4 receptor (P61073 whole entry): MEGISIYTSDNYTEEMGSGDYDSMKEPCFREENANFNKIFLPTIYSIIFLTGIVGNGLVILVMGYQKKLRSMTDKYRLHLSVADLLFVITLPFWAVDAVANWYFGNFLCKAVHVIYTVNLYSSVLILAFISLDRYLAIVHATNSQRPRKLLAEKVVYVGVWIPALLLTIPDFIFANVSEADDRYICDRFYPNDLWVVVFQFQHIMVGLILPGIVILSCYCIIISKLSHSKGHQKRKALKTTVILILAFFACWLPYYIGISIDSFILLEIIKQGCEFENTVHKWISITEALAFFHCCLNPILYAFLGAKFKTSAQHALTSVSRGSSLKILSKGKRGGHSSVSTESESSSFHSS

## GRAFYTTKY [Gp120 9 mer peptide spanning amino acids 315-324 (GRAFYTTKY)]
  apoptosis relative to the full gp 120 protein at an equivalent molar ratio: ~60 % of the apoptosis observed from the full gp 120 protein

## NAACAWLEAQ [Nef 10 mer peptide spanning the 50-60 motif (NAACAWLEAQ)]
  apoptosis relative to the full Nef protein at an equivalent molar ratio: ~100 % of the apoptosis observed for the full Nef protein
